Assay results from the DeepSol protein solubility set.

Assay: soluble on expression in E. coli; label from the status in PepcDB or PDB records

Sequence	soluble on expression in E. coli
MNVLIVGSGGREHALAWKMKQSPKVKNVIVAPGNGGHSERIDINSNDLDAVADFCEKHNIHCVLIGPEEPLSNGLADHLIRIHPNLMVFGPLKDGAQLETSKSFSKHFMKEYGLPTADFVTVSIENVKSLDCVFERLPWKNSVVKADGLAAGKGVIIPRNNAEAVEAARSILHGQFGNAGRTVIIEERLEGYEVSALAFTDGISFKRMPLGKDHKRLLESDLGPNTGMGVVAPVSVPKEVDRQIDEIFEKTLKGLADRKIKYCGVLYAGFMIVDQKPLLLEFNCRFGDPETQVLMRLLESDLFEIISSCVNQTLNTCDINWSTKSVCGVVLASGNYPKSGDKGSPITEIPSPDSTNVVFHAGTSVINSQIVTNGGRILCVTSLADTLHDAREHANKIAQNIQFTGKQFRKDIGKTIDIGTPSLSYGSSGVNIDEGNQFVEDIKLLVKKTLLPGAAQIGGFGAVLDLKKAGFSNDSQLVVGIDGVGTKIEVATHCNNFTGVGYDVVAMCVNDVICHCAKPIAFLDYFVCGKLERSMATQVLTSISEACVEAECSLIGGETAEMPGVYSTHQWDLAGCAIAARESTWPMLPLSSEIRDGDVILGLPSSGLHSNGFSLARKILTVNGVKYNDPLPWDSKSTFGTELLRGTKLYVKKVLPLLSTGLVKGCAHITGGGLTENAIRVLDKNSKDSLVIDCASWKFREIFNWMAAAGPVDTKEMIRTFNCGIGMVLIVSPDNVEKVKKQLRKHEEEFYEIGHVENSKNGEAIKFVNEEKMFQREKYTTQRKRVRVAILISGTGTNMQKLIERSKTPDSNCDVVLVVSNKEGAGGLTIAASYGIPTKVVPHTADRVTGDTELAQVLKDFGTELVCLGGYMRILSPCFISQFPSRIINIHPSLLPAFKGAHALQDALNFGVRIVGCTAHFVDELVDHGDIIAQRPVVVEDTDTIETVRQKIQLQEHEMFPNAMIAVAAKILEK	not soluble
MATIRIHDEANTTIENQEEVASFLDSQEVIYEQWDITRLPEHLSEKYDLTEEEKQQILDTFETEIKDISTRRGYKAQDVISLSDSNPKLDELLENFKREHHHTDDEVRFIVSGHGIFVIQGQDGTFFDVRLNPGDLISVPENIRHYFTLQEDRKVVAVRIFVTTEGWVPIYEKDSVNQLEHHHHHH	not soluble
MGHHHHHHSHVHMKDFFYFRNHFCITFELLGINLYELMKNNNFQGFSLSIVRRFTLSVLKCLQMLSVEKIIHCDLKPENIVLYQKGQASVKVIDFGSSCYEHQKVYTYIQSRFYRSPEVILGHPYDVAIDMWSLGCITAELYTGYPLFPGENEVEQLACIMEVLGLPPAGFIQTASRRQTFFDSKGFPKNITNNRG	soluble
MHMEDFIQFFSGSNLSIDKANFDQFGLKAKIKHYQKGQLLITQGQPAPKLFFLIKGMVRYMSVSATGKEFTQSFAFAPGISGSTRAMTRNANALFSIEALDDVICLEFEWHVFFDQMQSQPGFLAAYNRLLENMFIKKEEREFAFVQQSAEQRYLTFLDMNPQLRDKISLKMIASHIGITPIALSRIRNKLK	not soluble
MRNKILSDGAKELSYEIREIVKKADLINKNGQSIVFENIGDPIQKNNVVPQWIRETISNLTLDNKSYSYSPSKGILKTRQFLAELNNKKAGAQITADDILFFNGLGDAIAKVYQFISRSSRVIGPSPAYSTHSSAEAAHASQDPITYKLDPNNHWYPDLDDLYNKVKYNPNIIGILIINPDNPTGMVYPLETLKRIVEIAREFNLFLLSDEIYLNITYNGARAYSLAEVIEDVPGIAMKGISKEFPWPGSRCGWMEYYNRGKDQDFDKFCSALDNAKMIEVCSTTLPQLAIPVIMSDPRYLPYREELNSKIGKRSKIIAGILGQIPELMFNETYGAFYNTIVFKDGVLNDKQTLPIENAANKALVEKWISEPNVDLDKRFVYYLLAAKGICVVPISSFCSDLKGFRVTLLEENEELLEQTFTSIRDAIRLYLKS	not soluble
MGSDKIHHHHHHMKDSDILMLAEEGESTSEASARKKALLLGRQLGLASEQEYRPANASIAERAQHRARKLSSQYQANVETIFALALSYTPSDVTGVDLDPDWSHQFFLMAEQIHNRRMQDLWARILSSEIVNPGNFSLRTLALLKQLTHREAQILEKALGMAAKVNSEQRLKLISGYRLSGGIGQYFRKTTSVNLGLSQFGLPYSSILTLVDAGILHSSEFETGLLNNKTPIQFALQGIQMKLTPKSGNLLFSYYRFTPIGDELAQLVQPKPDQEYLKALQLLFAKDFKIE	not soluble
MAKLFAYQIGQNPRIQTDLLVDPQLFEDEHGCMGAVGFGLADCVQTGMFTDIEVIKRYLHEATYVFINGDFDRLSYLEIGIALSLGKTLYVITMNPNVTKEDLGIPFDNATIEFLSPSAFTERIHETEAAEN	not soluble
MKLSQLGFFCAVVERGTIAAAAEQLHCVPSNITTRLRELEGQLGVALFNRERNRLLVTPEGRLLYRHATRLLALADETAALFAGDQAHGALRVGALDVALANHLPQRLARYRRESPGVELHIRPEHSLLLERLLMEGELDLIVTDGPIEHPLLASRLAFRERLLRVTPADLPAPTPEDLAGLELYVFGHTCHYRRQVDRWLAESAIQPRATLEIESYPSLFACIEAGLGFACVPESFVARRPSTRRGFHAEPVAGLDSSDIHFVWRKQQASPLIQGFIDSIGAD	not soluble
MLMSIREDVVEATSSIVPEKIHSDARNFSLVTSSSQVRSPLYLKSLDADGEDNSTVEKQITHSKKVADTELDRSLECLKENENDVKTNGEVELSAVEDALIQVVPEVSENQNPRKIGPYDFDQHANFLNS	not soluble
MAKPLMAKATAVWLVDNTTISFKQIADFVGMHELEIQGIADGDVAAGVKGFDPIANNQLTQEEIDKAEQNPLHKLKLKFNPAAAGEEKRRGPRYTPLSKRQDRPNAILWLVKFHPELSDGQIAKLVGTTKPTIQSIRERTHWNISNMQPIDPVALGLCRQSELDSVVQKAAAKKAAEGGVMSDDERRKLVSTEQSLGMDTGPRIPTAIEGLENFSLSEPISTSDDDEEDHRSIADADSFFNLPKGGTDDEDEDDDPRYLEHHHHHH	soluble
MSLTTMLEVAKRAGVSKATVSRVLSGNGYVSQETKDRVFQAVEESGYRPNLLARNLSAKSTQTLGLVVTNTLYHGIYFSELLFHAARMAEEKGRQLLLADGKHSAEEERQAIQYLLDLRCDAIMIYPRFLSVDEIDDIIDAHSQPIMVLNRRLRKNSSHSVWCDHKQTSFNAVAELINAGHQEIAFLTGSMDSPTSIERLAGYKDALAQHGIALNEKLIANGKWTPASGAEGVEMLLERGAKFSALVASNDDMAIGAMKALHERGVAVPEQVSVIGFDDIAIAPYTVPALSSVKIPVTEMIQEIIGRLIFMLDGGDFSPPKTFSGKLIRRDSLIAPSREGHHHHHH	soluble
MGSDKIHHHHHHMNIRTLAAYMVFQCVFLISWSQDLKRVQKTITTLTSKTYHGRGAASNGDGLAAAYLEKQYKETGLKPVDTNFLQPFTYAINTFPGKMKLKSNLGVFKPGIDYIVKSTSGPGKGTCDVYLVDTLIFTDDGKLKEFLQLDVTALVVVYPKKYFKEFTASTPDLLKQLYSAAAIIELQDKKLTMALADQSFGTPVFEVLTTSFSPDIKTISFEIENELIKKHQANNVIGMIEGRSKKDSFIVLTAHYDHLGTLGRKAYFPGANDNASGVSMLLEFAHYYMENPPEYSMLFIAFAGEESGLLGSSYFVAHPLVPLAGIHFLINLDLLGTGDDGIMVVNGSVFKPAYNRLIAINEEKKLLPAIKMRGEAANSDHYPFYKKGVPCFFIYTLGGVAAYHDVQDVAKTLPLTKYREVFQLIVLFNGEK	not soluble
MSLKLFITGIGSGLGKALVEEGIKRGYEVYALSRHLPEEFKEKIHFVKCDLLKVEEVQGCLFKLLSGVKELELAILNAGILGKFSDMKDISLHEIDEVMKVNLWSNKVIIDTLMELGIKVKTLIGISSGAARNCNRGWNAYSLSKAGLNCLLKLYSWELPETKVISLAPGLVLTPMLKEVMSQNEEKYPSIKRIKNAPKLTPEKTAEFIFSILPKLESVESGSFVDVREGHHHHHH	soluble
MSLKKLRIGVVGLGGIAQKAWLPVLAAASDWTLQGAWSPTRAKALPICESWRIPYADSLSSLAASCDAVFVHSSTASHFDVVSTLLNAGVHVCVDKPLAENLRDAERLVELAARKKLTLMVGFNRRFAPLYGELKTQLATAASLRMDKHRSNSVGPHDLYFTLLDDYLHVVDTALWLSGGKASLDGGTLLTNDAGEMLFAEHHFSAGPLQITTCMHRRAGSQRETVQAVTDGALIDITDMREWREERGQGVVHKPIPGWQSTLEQRGFVGCARHFIECVQNQTVPQTAGEQAVLAQRIVDKIWRDAMSEEGGSHHHHHH	soluble
MGSDKIHHHHHHMGVTCVSQMPVAEGKSVQQTVELLTRKLEMLGAEKQGTFCVDCETYHTAASTLGSQGQTGKLMYVMHNSEYPLSCFALFENGPCLIADTNFDVLMVKLKGFFQSAKASKIETRGTRYQYCDFLVKVGTVTMGPSARGISVEVEYGPCVVASDCWSLLLEFLQSFLGSHTPGAPAVFGNRHDAVYGPADTMVQYMELFNKIRKQQQVPVAGIR	not soluble
MRLNIAPAPWPGAPVVVLSAGLGGGGGYWLAQRAALEEQYQLVSYDHNGTGENAGPLPAGYSLATMAGELFSALQAAGIARFALVGHALGALIGLQLALDRPEAVSALALVNGWLSLSPHTRRCFQVRERLLHAGGAQAWVEAQPLFLYPAEWMAARLPRLEAEDALAISHFQGKENLLKRLQALKQADFSRRASAIACPTLIISAADDLLVPASCSRVLQTAIPGSQLVEMPWGGHACNVTDADTFNTILRDGLSAMLPVARETR	not soluble
AMACWAQSQGYNCCNNPSSTKVEYTDASGQWGVQNGQWCGIDYSYGQNQGNESCTGNGSYPCCNTCQATYTDGDGDWAFENGNWCGIKNSCKQQPQNNNQ	soluble
MHSITTALENLTRQLSQEIPATPGLCVFDAPFPLNDAFDALSWLASQSSFPQFYWQQRNGDEEAAVLGAITVFSSLDLAQRFLRQHAQPDLRIWGLNAFEPKEGYLLLPRLEWRRSGGTATLRLHLHSDVSLRDDARQAKAFLASLVGIKPVPALRLSLTSEQHWPDKDGWVKLIQQATHTIAQEAFDKVVLARATDLQFSRPVNAAAMMASSRRLNLNCYHFFMAFSADTAFLGSSPERLWRRRETALRTEALAGTVANHPDNHKAWQLGEWLMKDDKNQRENMLVVEDICQRLQNCTHSLDVLPPQVLRLRKVQHLRRCIWTALNQADDTLCLHQLQPTAAVAGIPREPARCFIEQHEPFEREWYAGSAGYLSTRQSEFCVTLRSAKVTANVVRLYAGAGIVRGSDPEQEWQEIDNKAAGLRTLLQMDA	not soluble
MGSDKIHHHHHHMHKFNPDRIQIGISACLLGEQVRFDGGHKNSAYCQQELKPHFDFVPVCPEMAIGLGAPRKSIRQVRIEGEIRVRSADGSIDVTEQLQSFCNNKADGLGFLGGYLFCSKSPTCGMERVPVYKADGSGGFKEGVGVFAAALMKRFPHLPVEEEGRLHDLVIRENFFTRVYAYHDWHCMRLKGLTRKALTDFHARYKYLLLSHSPAIYRTLGPLLAGDGELEAVADSYFDGFMTALRHKASRRNHTSALQHIQGYFKKFLSGSQKAELSDAILAYRQGVQPLLVPITLIRHYLREHPNDYIAAQVYLNPHPDSLRLRYAY	not soluble
MSEEHIAVTRFREYLRVNTEQPNPDYVACRDFLFKYADEVGIERKAVETAPGVYFVIMTIPGSQPELPSIMLYSHTDVVPTFREHWTHDPYSAFKDEDGNIFARGAQDTKCLGVQHVEAFRNLFAKGAKQWKRTIHVVWGPDEETGHINGMKGFVETNEFKKLNIGFSLDEGHASENGVYLTFYAERVTWWLKVTAPGNPGHGSQFMENTAMEKIERFLASARAFRNEQKELLEKNPTWALGDVTTLNVNILKGGVQFNVIPEKFEAYVDIRLTPNQDFGEIRAKLDQWVKDAGEGVTYEFSQHSDYKPVSPHTRDDPFWAAFEDSLKQENCEFTTEVCVGSTDSRFVRKAGVPAINFSPMINTPVRAHAHNEFLNEKVFLRGVEIFETLINNLGNV	not soluble
